Here are results for 1 substance from publication PMC12159748.

Series [1] concerns MBP-P6.9 NE-FLAG (7E, hyper-phosphorylation mimic) (Autographa californica multiple nucleopolyhedrovirus (AcMNPV)). Put plainly: fluorescence polarization. As to conditions: FP: 50 mM HEPES pH 7.5, 0.005% sarcosyl, 100 mM NaCl, 0.5 mM EDTA, 1 mM DTT, 20 nM DNA, 1 h at 4 C, EMSA: 50 mM Tris pH 7.4, 100 mM NaCl, 1 mM EDTA. A general note: Polarisation of emitted light reports the rotation of a fluorescent probe.

For series [2], the system named is MBP-P6.9 NA-FLAG (7A, hypo-phosphorylation mimic) (Autographa californica multiple nucleopolyhedrovirus (AcMNPV)). As to the kind of experiment: fluorescence polarization. As to conditions: FP: 50 mM HEPES pH 7.5, 0.005% sarcosyl, 100 mM NaCl, 0.5 mM EDTA, 1 mM DTT, 20 nM DNA, 1 h at 4 C, EMSA: 50 mM Tris pH 7.4, 100 mM NaCl, 1 mM EDTA.

Turning to 39-bp DNA, the Kd (in general, the free concentration of one partner at which half of the binding sites on the other are occupied at equilibrium, for simple one-to-one binding) was 1750 nM in series [1] and 450 nM in series [2].
